Data taken from the supplement of paper PMC7125110.
± gives the standard error. For part of these data: This sample holds only a part of the variants without activity.

B1: glmS ribozyme (parent)
chain: AUAAAAGCGCCAGAACUACAGAAAUGUAGUUGACGAGGAGGAGGUUUAUCGAAUUUUCGGCGGAUGCCUCCAAA

Columns and labels:
Settings in all cases: with glucosamine-6-phosphate
[1] = variants of: B1; assay: kcat; higher = faster cleavage; RNA array
Procedure, shortened: (§1)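 Barcoded glmS ribozyme variants on sequenced MiSeq chips were transcribed in situ by E. coli RNA polymerase and tracked through a hybridised Cy3 probe at 37 °C. Glucosamine-6-phosphate (40 μM to 10 mM) in HEPES/KCl/Mg(OAc)2 buffer was flowed in, and tiles were imaged over ~14 h. Signals were normalised to baseline and to non-cleaving reference variants; per-tile medians were fit to one- or two-exponential decays to give kobs. kcat and KM came from weighted Michaelis–Menten fits across concentrations.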

[2] = variants of: B1; assay: self-cleavage kobs at 10000 uM GlcN6P; higher = faster cleavage; RNA array
Procedure, shortened: as §1

[3] = variants of: B1; assay: self-cleavage kobs at 640 uM GlcN6P; higher = faster cleavage; RNA array
Procedure, shortened: as §1

[4] = variants of: B1; assay: KM; higher = weaker cofactor use; RNA array
Procedure, shortened: as §1

[5] = variants of: B1; assay: self-cleavage kobs at 40 uM GlcN6P; higher = faster cleavage; RNA array
Procedure, shortened: as §1

[6] = variants of: B1; assay: self-cleavage kobs at 2500 uM GlcN6P; higher = faster cleavage; RNA array
Procedure, shortened: as §1

[7] = variants of: B1; assay: self-cleavage kobs at 160 uM GlcN6P; higher = faster cleavage; RNA array
Procedure, shortened: as §1

Row | Variant | kcat [1] [s⁻¹] | self-cleavage kobs at 10000 uM GlcN6P [2] [s⁻¹] | self-cleavage kobs at 640 uM GlcN6P [3] [s⁻¹] | KM [4] [µM] | self-cleavage kobs at 40 uM GlcN6P [5] [s⁻¹] | self-cleavage kobs at 2500 uM GlcN6P [6] [s⁻¹] | self-cleavage kobs at 160 uM GlcN6P [7] [s⁻¹]
1 | G43A U55A | 0.00026 ± 7.6e-05 | 8.23e-05 ± 1.2e-05 |  |  |  |  | 
2 | C10G C67A | 2.45e-05 ± 7.2e-06 |  |  |  |  |  | 
3 | G59C C68G | 2.78e-05 ± 1e-05 |  |  |  |  |  | 
4 | C11U A53U U54C C58A | 1.72e-05 ± 2.3e-06 |  | < 1e-05 |  |  |  | 
5 | U56G U65G | 0.00371 ± 0.00083 | 0.00218 ± 0.00031 | 0.000301 ± 6e-05 | 7360 ± 2500 | 3.29e-05 ± 1.6e-05 | 0.000811 ± 0.00023 | 
6 | C10A U31G | < 1e-05 |  | < 1e-05 |  |  | < 1e-05 | 
7 | G40A U54C | 0.00522 ± 0.00053 | 0.00467 ± 0.0012 | 0.00211 ± 0.0003 | 908 ± 140 | 0.000248 ± 5.6e-05 | 0.00449 ± 0.0013 | 0.000724 ± 0.00016
8 | U30A U55C | 0.0088 ± 0.0027 | 0.00647 ± 0.00073 | 0.00129 ± 0.00024 | 3470 ± 1500 | 0.000194 ± 3.2e-05 | 0.00471 ± 0.0012 | 0.000315 ± 5.6e-05
9 | G9A U31A | 2.13e-05 ± 6.3e-07 |  | < 1e-05 |  | < 1e-05 |  | < 1e-05
10 | A14G C70A | 0.000511 ± 0.0001 |  | 0.000328 ± 4.7e-05 | 256 ± 76 | 6.67e-05 ± 5.7e-06 | 0.000484 ± 8.1e-05 | 0.000287 ± 4.4e-05
11 | C50A A53C U57G C58G | 6.76e-05 ± 2.5e-05 |  | 0.000112 ± 2.3e-05 |  |  | 8.01e-05 ± 1.9e-05 | 
12 | C10G G60U | 4.68e-05 ± 1.2e-05 | 2.05e-05 ± 1e-05 |  |  | < 1e-05 |  | < 1e-05
13 | U57C C70A | 1.97e-05 ± 8.4e-06 |  |  |  |  |  | 
14 | A6G G66A | 0.000421 ± 2.1e-05 | 0.000325 ± 7.5e-05 | 8.05e-05 ± 1.4e-05 | 2650 ± 210 |  | 0.000217 ± 5.1e-05 | 
15 | A15G A42C | 1.26e-05 ± 4.1e-06 |  |  |  |  |  | < 1e-05
16 | A53C U65A | 0.000359 ± 3.3e-05 | 0.000294 ± 3.7e-05 | 9.23e-05 ± 1.4e-05 | 1720 ± 320 |  | 0.00025 ± 3.8e-05 | 3.15e-05 ± 1e-05
17 | C8A C70A | 1.28e-05 ± 2.3e-06 |  |  |  |  |  | 
18 | G29A G66U | 0.000177 ± 5.1e-05 | 0.00015 ± 1.9e-05 | 6.51e-05 ± 2e-05 |  |  | 6.95e-05 ± 1.9e-05 | 
19 | G9A U54C | 0.000246 ± 5.5e-05 | 3.34e-05 ± 1.3e-05 |  |  |  |  | 
20 | A15U G51C | < 1e-05 |  | < 1e-05 |  | < 1e-05 |  | 

Row | Variant | kcat [1] [s⁻¹] | self-cleavage kobs at 10000 uM GlcN6P [2] [s⁻¹] | self-cleavage kobs at 640 uM GlcN6P [3] [s⁻¹] | KM [4] [µM] | self-cleavage kobs at 40 uM GlcN6P [5] [s⁻¹] | self-cleavage kobs at 2500 uM GlcN6P [6] [s⁻¹] | self-cleavage kobs at 160 uM GlcN6P [7] [s⁻¹]
21 | C10A U47A U57A C70U | 3.44e-05 ± 1.3e-05 |  |  |  |  |  | 
22 | A15C A52U | 0.000104 ± 4.8e-06 | 8.65e-05 ± 1.9e-05 |  | 1830 ± 260 |  | 6.2e-05 ± 1.7e-05 | 
23 | U54G C70A | 0.000123 ± 2.4e-05 | 0.000109 ± 1.6e-05 | 0.000198 ± 2.9e-05 |  | 8.02e-05 ± 1.4e-05 | 0.000143 ± 2.9e-05 | 7.71e-05 ± 1.8e-05
24 | A39C U55A | 0.00799 ± 0.0028 | 0.00755 ± 0.0012 | 0.00143 ± 0.00023 | 2790 ± 1400 | 0.000201 ± 4.2e-05 | 0.00295 ± 0.00058 | 0.000429 ± 7.8e-05
25 | A12C G29A | 0.00648 ± 0.0024 | 0.00557 ± 0.00097 | 0.00107 ± 0.00022 |  | 0.000188 ± 3.3e-05 | 0.00331 ± 0.00067 | 0.000322 ± 0.00011
26 | G51U C68U | < 1e-05 |  |  |  |  |  | 
27 | A12C C34A | < 1e-05 |  | < 1e-05 |  | < 1e-05 | < 1e-05 | < 1e-05
28 | A6C C67U | 2.53e-05 ± 7.4e-07 | 2.36e-05 ± 7.4e-06 |  | 660 ± 160 | < 1e-05 |  | < 1e-05
29 | C16U U65C | 0.000756 ± 0.00022 | 0.000697 ± 0.00011 | 0.000152 ± 2.2e-05 | 2290 ± 1100 |  | 0.000332 ± 6.8e-05 | 8.27e-05 ± 1.8e-05
30 | C58U C70U | 0.000128 ± 1.9e-05 | 8.61e-05 ± 8.8e-06 |  | 4650 ± 1400 |  | 4.75e-05 ± 5.9e-06 | 
31 | G59U A64G | 6.46e-05 ± 1.1e-05 | 5.92e-05 ± 9.3e-06 |  |  | < 1e-05 | 7.94e-05 ± 2.1e-05 | 
32 | G29A G32A C71A | 0.000259 ± 0.00011 | 0.000201 ± 4.4e-05 | 6.03e-05 ± 2.6e-05 |  |  |  | 
33 | U46C C58A | 0.000527 ± 0.00012 | 0.00022 ± 3.4e-05 | 2.77e-05 ± 9.7e-06 |  |  | 7.47e-05 ± 1.3e-05 | 
34 | C8G G37U | < 1e-05 |  |  |  |  |  | < 1e-05
35 | G40A C68U | 5.12e-05 ± 6.5e-06 | 4.59e-05 ± 5.4e-06 |  |  | < 1e-05 | 4.58e-05 ± 1e-05 | 
36 | U31C C58U | 2.26e-05 ± 7.2e-06 |  |  |  |  | 2.64e-05 ± 1.3e-05 | 
37 | G41A A42G | 0.000223 ± 4.2e-05 | 0.000192 ± 1.8e-05 | 8.45e-05 ± 1.3e-05 |  |  | 0.000296 ± 4.3e-05 | 
38 | U31G G41C | 0.000172 ± 3.9e-05 | 0.000139 ± 2.2e-05 |  |  |  | 0.000167 ± 3.6e-05 | 
39 | C68A C71G | 2.77e-05 ± 1e-05 |  |  |  |  | 3.63e-05 ± 9.6e-06 | 3.29e-05 ± 1e-05
